Experiment: yeast display, Sf9 membrane polyspecificity reagent, FACS + sequencing; frameworks hold sequencing errors
Summary of the method: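 Galactose-induced (36–48 hours) yeast carrying a synthetic nanobody display library were exposed to 10% biotinylated, detergent-solubilized Sf9 membrane reagent at 4 °C for 1 hour. FACS followed streptavidin microbead enrichment, using low and high (top ~1%) gates for expression (anti-HA) and reagent binding (streptavidin). Colony PCR, MiSeq 2 × 250 sequencing and CDR-length filtering followed. Labels for polyreactivity reflect the gate of origin.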

Row | Sequence | polyreactivity (PSR sort gate)
1 | QVQLVESGGGLVQAGGSLRLSCAASGNIFGYNAMGWYRQAPGKERELVAAITSDGRTYYADSVKGRFTISRDNAKNTVYLQMNSLKPEDTAVYYCAADSSGYYWFNYWGQGTQVTVSS | low polyreactivity
2 | QVQLVESGAGLFQAGGSLRLSCAASGRTFVKNAMAWYRQAPGKERELVAAISTSGGRTYYADSVKGRFTISRDNAKKTVYLQMNSLKPEDTAVYYCGAVLYATRPVYGFDSCGQGTQVTVSS | high polyreactivity
3 | QVQLVESGRGLVHAGGSLRLSCAASGSIFSPYAMGWYRPAPGKEREFVASITFNGGSTYYADSVKGRFTISRDNAKNTVYLQMTSLKPEDTAVYYCAATYWYDTYWLMDYWGQGTQVTVSS | high polyreactivity
4 | QVQLVESGGGLVQAGGSLRLSCAASGRIFYYYAMAWYRQAPGKERELVAAITRRGGSTYYADSVKGRFTISRDIAKNTVYFQMNSLKPEDTAVYYCAKPDRTGWLDGDYWGQGTQVTVSS | low polyreactivity
5 | QVQLVESGGGLVQAGGSLRLSCAASVRIFVYNTMGWYRQAPGKERELVAAINYSGGSTYYADSVKGRFTISRDNAKNTVYLQMNSLKPEDTAVYYCAVKLRSRAGTSYGYWGQGTQVTVSS | high polyreactivity
6 | QVQLVESGGGLVQAGGSLPLSCYDSGITIPDYYMGCFRQSPGKERELVAAITYRSGSTYNADSVKGRFTISRDNAKNTVYLQMNSLKQEDTAVFYCAAKRFLLRYYTKQYNYWGLGTQVTVSS | high polyreactivity
7 | QVQLVESGGGLVQAGGSLRLSCAASGRIFFTNAMGWYRQAPGKERELVAAIRSSGGRTYYADSVKGRFTISRDNAKNTVYLQMNSLKPEDTAVYYCNVVDGRHISHYNYWGQGTQVTVSS | high polyreactivity
8 | QVQLVESGGGLVQAGGSLRLSCAASGITFYKNVMGWYRQAPGKERELVAAISSSGGSTYYADSVKGRFTISRDNAKNTVYLQMNSLKPEDTAVYYCAADEDDVVSGFLRYFYVAYYYWGQGTQVTVSS | low polyreactivity
9 | QVQLVESGGGLVQAGGSLRLSCAASGFTFGYYGMGWYRQAPGKVRELVAAINWSGVNTNYADSVKGRFTISRDNAKNTVYLQMNSLKPEDTAVYYCAADAGYDGYGYWGQGTQVTVSS | low polyreactivity
10 | QVQLVESGGGLVQAGGSLRLSCAASGRIFGGYAMGWYRQAPGKERELVASITARGTSTYYADTVKGRFTISRDNAKNTVYLQMNRLKPEDTAVYYCNALYRIYRNQWFISNYGYYYWGQGTQVTVSS | low polyreactivity
11 | QVQLVESGGGLVQAGGSLRLSCAASGRIFLINGMGWYRQAPGKERELVAVITQSGGTYYADSVKGRFTISRDNAKNTVYLQMNSLKPEDTAVYYCAASSYGASRGYWGQGTQVTVSS | high polyreactivity
12 | QVQLVESGGGLVQAGGSLRLSCAASGFTFVRNAMGWYRQAPGKERELVAAISGSGGRTYYADSVKGRFTISRDNAKNTVYLQMNSLKPEDTAVYDCNTASAYEYEYWGQGTQVTVSS | high polyreactivity
13 | QVQLVESGGGLVQAGGSLRLTCAASGLTFEYYAMGWYRQAPGKERELVARISKSGVGTNYADSVKGRFTISRDHAKNTVYLQMNSLKPEDNAVYSCAARKYHYGYGYWGQGTQVTVSS | high polyreactivity
14 | QVQLVESGGGLVQAGGSLRLSCAASGFTFYNNAMGWYRQAPGKERELVAGIARRGGSTSYADSVKGRFTISRDNAKNSVYLQMNSLKPEDTEVYYCAKQDYSPYYPYDYWGLGTQVTVSS | high polyreactivity
15 | QVQLVESGGGLVQAGGSLRLSCAASGNTFYSNAMGWYRQAPGKERDLVAAISASGTTTYYADSVKGRFTISRDNAKNTVYLQMNSLKPEDTAVYYCAAVAPTRATRREDSWGQGTQVTVSS | high polyreactivity
16 | QVQLVESGGGLVQAGGSLRLSCAASGIIFGRYAMGWYRQSPGKERELVAAISSRGGSTYYADSVKGRFTISRDNAKNTVYLQMNSLKPEDTAVYYCAATWCFLRGSTKYYYWGQGTQVTVSS | high polyreactivity
17 | QVQLVESGGGLVQAGGSLRLICAASGRIFYPYAMGWYRPAPGKERELVATITRTGSTYYADSVKGRFTISRDNAKNTVYLHMNSLKPEDTAVYYCAVQRSYVGPRQYNYWGQGTQVTVSS | high polyreactivity
